According to patent publication US6046165:

Key:
[1] = target: MAD^N (B-Pv) (Drosophila melanogaster) (UniProt P42003); experiment: EMSA
[2] = target: MAD full length (B-H) (Drosophila melanogaster) (UniProt P42003); experiment: EMSA; settings: approximately 100-fold lower than MAD^N
MAD full length (B-H) (Drosophila melanogaster), sequence (P42003 whole entry): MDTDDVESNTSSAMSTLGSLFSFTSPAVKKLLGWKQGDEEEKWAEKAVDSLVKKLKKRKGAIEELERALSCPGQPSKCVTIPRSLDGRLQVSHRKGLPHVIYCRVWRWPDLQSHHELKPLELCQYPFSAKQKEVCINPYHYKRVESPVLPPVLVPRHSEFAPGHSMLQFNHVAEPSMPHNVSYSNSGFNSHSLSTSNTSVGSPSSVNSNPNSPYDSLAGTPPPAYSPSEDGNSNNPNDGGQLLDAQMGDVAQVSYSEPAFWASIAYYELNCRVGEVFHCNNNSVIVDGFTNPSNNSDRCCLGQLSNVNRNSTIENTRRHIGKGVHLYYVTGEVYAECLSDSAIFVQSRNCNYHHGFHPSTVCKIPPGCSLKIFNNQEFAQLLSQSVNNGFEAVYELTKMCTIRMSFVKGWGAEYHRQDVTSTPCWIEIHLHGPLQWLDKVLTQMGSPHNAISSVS

MAD^N (B-Pv) (Drosophila melanogaster), sequence (P42003 1-241): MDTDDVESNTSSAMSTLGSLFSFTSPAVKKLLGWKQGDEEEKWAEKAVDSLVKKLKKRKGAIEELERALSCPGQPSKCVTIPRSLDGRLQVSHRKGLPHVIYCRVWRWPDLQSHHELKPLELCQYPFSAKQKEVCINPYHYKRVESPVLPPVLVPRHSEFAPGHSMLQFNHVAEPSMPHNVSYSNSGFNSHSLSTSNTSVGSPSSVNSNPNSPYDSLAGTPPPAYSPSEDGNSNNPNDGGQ

Sequence: ATTC (double strand) [MAD binding site (FIG. 7B)]
- binding signal ([1]; wild-type reference): 1 reference

Sequence: ATTC (double strand) [MAD binding site GCT to CGC]
- binding signal ([1]; increased affinity vs wild-type site, MBP fusion): 6 fold vs n15

Sequence: ATTC (double strand) [Vg 20 bp]
- binding signal (fraction of MAD^N) [2]: 0.01
